According to paper PMC6720793 (Molecules, 2019):

Biological target: human β2 microglobulin (Homo sapiens, UniProt P61769)

Kd: 46 nM
B1: CNb1 (VHH)
chain: QVQLQESGGGSVQAGGSLRLSCAASRCWFRQAPGKEREWVARYYADSVKGRFTFSQDNAKNTVYLQMDSLEPEDTATYYCCWGQGTQVTVSS
